Test results: patent US20160272693A1 (ZEALAND PHARMA A S, published 2016)
*1 amine or outer side, *2 acyl side, *3 side chain or, on linkers, in order; H or OH if unused. Bridges are numbered along the chain shown (N, C = ends). [ ]: non-standard residue; d: D form. The star is where a group is joined. C20 diacid = O=C(O)CCCCCCCCCCCCCCCCCCC(=O)*; γGlu = O=C(O)[C@H](CCC(=O)[*:2])N[*:1]; Hyp = O=C(O)[C@@H]1C[C@@H](O)CN1; NMeI = CC[C@H](C)[C@H](NC)C(=O)O; Sar = CNCC(=O)O

T1: human amylin receptor 3 (hAMYR3), hCTR2 co-expressed with human receptor activity modifying protein 3 (hRAMP3) (human, UniProt P30988 25-474; O60896 24-148)
T1 sequence (looked up) 1: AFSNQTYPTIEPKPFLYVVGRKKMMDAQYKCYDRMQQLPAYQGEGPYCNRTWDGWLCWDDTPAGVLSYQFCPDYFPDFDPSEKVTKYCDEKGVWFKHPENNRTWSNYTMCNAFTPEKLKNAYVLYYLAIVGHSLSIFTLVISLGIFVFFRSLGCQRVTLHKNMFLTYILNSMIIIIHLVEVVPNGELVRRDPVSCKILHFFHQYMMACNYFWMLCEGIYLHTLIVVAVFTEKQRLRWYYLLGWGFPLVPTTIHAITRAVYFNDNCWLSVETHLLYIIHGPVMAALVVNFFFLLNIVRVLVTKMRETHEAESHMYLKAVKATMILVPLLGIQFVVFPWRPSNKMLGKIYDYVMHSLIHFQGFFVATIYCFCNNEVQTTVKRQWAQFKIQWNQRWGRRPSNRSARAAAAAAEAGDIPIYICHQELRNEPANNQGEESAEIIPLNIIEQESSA
T1 sequence (looked up) 2: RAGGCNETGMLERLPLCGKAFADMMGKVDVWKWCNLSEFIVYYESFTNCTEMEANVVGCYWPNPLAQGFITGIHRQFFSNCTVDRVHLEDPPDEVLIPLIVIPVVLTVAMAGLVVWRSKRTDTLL

B1: [19CD]-isoGlu-R-C( )-PTAT-C( )-ATERLAHFLQRSSF-Gly(Me)-A-Ile(Me)-LSSTEVGSGT-Hyp-NH2 (Compd. 72) (peptide)
peptide: {C20 diacid}-[γGlu]RCPTATCATERLAHFLQRSSF[Sar]A[NMeI]LSSTEVGSGT[Hyp]-NH2
modifications: disulfide 3-8
SMILES: CC[C@H](C)[C@@H](C(=O)N[C@@H](CC(C)C)C(=O)N[C@@H](CO)C(=O)N[C@@H](CO)C(=O)N[C@H](C(=O)N[C@@H](CCC(=O)O)C(=O)N[C@H](C(=O)NCC(=O)N[C@@H](CO)C(=O)NCC(=O)N[C@H](C(=O)N1C[C@H](O)C[C@H]1C(N)=O)[C@@H](C)O)C(C)C)[C@@H](C)O)N(C)C(=O)[C@H](C)NC(=O)CN(C)C(=O)[C@H](Cc1ccccc1)NC(=O)[C@H](CO)NC(=O)[C@H](CO)NC(=O)[C@H](CCCNC(=N)N)NC(=O)[C@H](CCC(N)=O)NC(=O)[C@H](CC(C)C)NC(=O)[C@H](Cc1ccccc1)NC(=O)[C@H](Cc1c[nH]cn1)NC(=O)[C@H](C)NC(=O)[C@H](CC(C)C)NC(=O)[C@H](CCCNC(=N)N)NC(=O)[C@H](CCC(=O)O)NC(=O)[C@@H](NC(=O)[C@H](C)NC(=O)[C@@H]1CSSC[C@H](NC(=O)[C@H](CCCNC(=N)N)NC(=O)CC[C@H](NC(=O)CCCCCCCCCCCCCCCCCCC(=O)O)C(=O)O)C(=O)N2CCC[C@H]2C(=O)N[C@@H]([C@@H](C)O)C(=O)N[C@@H](C)C(=O)N[C@@H]([C@@H](C)O)C(=O)N1)[C@@H](C)O
B2: [19CD]-isoGlu-R-C( )-NTAT-C( )-ATQRLAHFLQRSSF-Gly(Me)-A-Ile(Me)-LSSTEVGSTT-Hyp-NH2 (Compd. 73) (peptide)
peptide: {C20 diacid}-[γGlu]RCNTATCATQRLAHFLQRSSF[Sar]A[NMeI]LSSTEVGSTT[Hyp]-NH2
modifications: disulfide 3-8
SMILES: CC[C@H](C)[C@@H](C(=O)N[C@@H](CC(C)C)C(=O)N[C@@H](CO)C(=O)N[C@@H](CO)C(=O)N[C@H](C(=O)N[C@@H](CCC(=O)O)C(=O)N[C@H](C(=O)NCC(=O)N[C@@H](CO)C(=O)N[C@H](C(=O)N[C@H](C(=O)N1C[C@H](O)C[C@H]1C(N)=O)[C@@H](C)O)[C@@H](C)O)C(C)C)[C@@H](C)O)N(C)C(=O)[C@H](C)NC(=O)CN(C)C(=O)[C@H](Cc1ccccc1)NC(=O)[C@H](CO)NC(=O)[C@H](CO)NC(=O)[C@H](CCCNC(=N)N)NC(=O)[C@H](CCC(N)=O)NC(=O)[C@H](CC(C)C)NC(=O)[C@H](Cc1ccccc1)NC(=O)[C@H](Cc1c[nH]cn1)NC(=O)[C@H](C)NC(=O)[C@H](CC(C)C)NC(=O)[C@H](CCCNC(=N)N)NC(=O)[C@H](CCC(N)=O)NC(=O)[C@@H](NC(=O)[C@H](C)NC(=O)[C@@H]1CSSC[C@H](NC(=O)[C@H](CCCNC(=N)N)NC(=O)CC[C@H](NC(=O)CCCCCCCCCCCCCCCCCCC(=O)O)C(=O)O)C(=O)N[C@@H](CC(N)=O)C(=O)N[C@@H]([C@@H](C)O)C(=O)N[C@@H](C)C(=O)N[C@@H]([C@@H](C)O)C(=O)N1)[C@@H](C)O
B3: [19CD]-isoGlu-R-C( )-NTAT-C( )-ATQRLAHFLQRSSF-Gly(Me)-A-Ile(Me)-LSSTEVGSGT-Hyp-NH2 (Compd. 71) (peptide)
peptide: {C20 diacid}-[γGlu]RCNTATCATQRLAHFLQRSSF[Sar]A[NMeI]LSSTEVGSGT[Hyp]-NH2
modifications: disulfide 3-8
SMILES: CC[C@H](C)[C@@H](C(=O)N[C@@H](CC(C)C)C(=O)N[C@@H](CO)C(=O)N[C@@H](CO)C(=O)N[C@H](C(=O)N[C@@H](CCC(=O)O)C(=O)N[C@H](C(=O)NCC(=O)N[C@@H](CO)C(=O)NCC(=O)N[C@H](C(=O)N1C[C@H](O)C[C@H]1C(N)=O)[C@@H](C)O)C(C)C)[C@@H](C)O)N(C)C(=O)[C@H](C)NC(=O)CN(C)C(=O)[C@H](Cc1ccccc1)NC(=O)[C@H](CO)NC(=O)[C@H](CO)NC(=O)[C@H](CCCNC(=N)N)NC(=O)[C@H](CCC(N)=O)NC(=O)[C@H](CC(C)C)NC(=O)[C@H](Cc1ccccc1)NC(=O)[C@H](Cc1c[nH]cn1)NC(=O)[C@H](C)NC(=O)[C@H](CC(C)C)NC(=O)[C@H](CCCNC(=N)N)NC(=O)[C@H](CCC(N)=O)NC(=O)[C@@H](NC(=O)[C@H](C)NC(=O)[C@@H]1CSSC[C@H](NC(=O)[C@H](CCCNC(=N)N)NC(=O)CC[C@H](NC(=O)CCCCCCCCCCCCCCCCCCC(=O)O)C(=O)O)C(=O)N[C@@H](CC(N)=O)C(=O)N[C@@H]([C@@H](C)O)C(=O)N[C@@H](C)C(=O)N[C@@H]([C@@H](C)O)C(=O)N1)[C@@H](C)O
B4: [19CD]-isoGlu-R-C( )-PTAT-C( )-ATERLAHFLQRSSF-Gly(Me)-A-Ile(Me)-LSSTEVGSST-Hyp-NH2 (Compd. 70) (peptide)
peptide: {C20 diacid}-[γGlu]RCPTATCATERLAHFLQRSSF[Sar]A[NMeI]LSSTEVGSST[Hyp]-NH2
modifications: disulfide 3-8
SMILES: CC[C@H](C)[C@@H](C(=O)N[C@@H](CC(C)C)C(=O)N[C@@H](CO)C(=O)N[C@@H](CO)C(=O)N[C@H](C(=O)N[C@@H](CCC(=O)O)C(=O)N[C@H](C(=O)NCC(=O)N[C@@H](CO)C(=O)N[C@@H](CO)C(=O)N[C@H](C(=O)N1C[C@H](O)C[C@H]1C(N)=O)[C@@H](C)O)C(C)C)[C@@H](C)O)N(C)C(=O)[C@H](C)NC(=O)CN(C)C(=O)[C@H](Cc1ccccc1)NC(=O)[C@H](CO)NC(=O)[C@H](CO)NC(=O)[C@H](CCCNC(=N)N)NC(=O)[C@H](CCC(N)=O)NC(=O)[C@H](CC(C)C)NC(=O)[C@H](Cc1ccccc1)NC(=O)[C@H](Cc1c[nH]cn1)NC(=O)[C@H](C)NC(=O)[C@H](CC(C)C)NC(=O)[C@H](CCCNC(=N)N)NC(=O)[C@H](CCC(=O)O)NC(=O)[C@@H](NC(=O)[C@H](C)NC(=O)[C@@H]1CSSC[C@H](NC(=O)[C@H](CCCNC(=N)N)NC(=O)CC[C@H](NC(=O)CCCCCCCCCCCCCCCCCCC(=O)O)C(=O)O)C(=O)N2CCC[C@H]2C(=O)N[C@@H]([C@@H](C)O)C(=O)N[C@@H](C)C(=O)N[C@@H]([C@@H](C)O)C(=O)N1)[C@@H](C)O
B5: [19CD]-isoGlu-R-C( )-GTAT-C( )-ATERLAHFLQRSSF-Gly(Me)-A-Ile(Me)-LSSTEVGSNT-Hyp-NH2 (Compd. 7) (peptide)
peptide: {C20 diacid}-[γGlu]RCGTATCATERLAHFLQRSSF[Sar]A[NMeI]LSSTEVGSNT[Hyp]-NH2
modifications: disulfide 3-8
SMILES: CC[C@H](C)[C@@H](C(=O)N[C@@H](CC(C)C)C(=O)N[C@@H](CO)C(=O)N[C@@H](CO)C(=O)N[C@H](C(=O)N[C@@H](CCC(=O)O)C(=O)N[C@H](C(=O)NCC(=O)N[C@@H](CO)C(=O)N[C@@H](CC(N)=O)C(=O)N[C@H](C(=O)N1C[C@H](O)C[C@H]1C(N)=O)[C@@H](C)O)C(C)C)[C@@H](C)O)N(C)C(=O)[C@H](C)NC(=O)CN(C)C(=O)[C@H](Cc1ccccc1)NC(=O)[C@H](CO)NC(=O)[C@H](CO)NC(=O)[C@H](CCCNC(=N)N)NC(=O)[C@H](CCC(N)=O)NC(=O)[C@H](CC(C)C)NC(=O)[C@H](Cc1ccccc1)NC(=O)[C@H](Cc1c[nH]cn1)NC(=O)[C@H](C)NC(=O)[C@H](CC(C)C)NC(=O)[C@H](CCCNC(=N)N)NC(=O)[C@H](CCC(=O)O)NC(=O)[C@@H](NC(=O)[C@H](C)NC(=O)[C@@H]1CSSC[C@H](NC(=O)[C@H](CCCNC(=N)N)NC(=O)CC[C@H](NC(=O)CCCCCCCCCCCCCCCCCCC(=O)O)C(=O)O)C(=O)NCC(=O)N[C@@H]([C@@H](C)O)C(=O)N[C@@H](C)C(=O)N[C@@H]([C@@H](C)O)C(=O)N1)[C@@H](C)O
B6: [19CD]-isoGlu-R-C( )-PTAT-C( )-ATERLAHFLQRSSF-Gly(Me)-A-Ile(Me)-LSSTEVGSTT-Hyp-NH2 (Compd. 74) (peptide)
peptide: {C20 diacid}-[γGlu]RCPTATCATERLAHFLQRSSF[Sar]A[NMeI]LSSTEVGSTT[Hyp]-NH2
modifications: disulfide 3-8
SMILES: CC[C@H](C)[C@@H](C(=O)N[C@@H](CC(C)C)C(=O)N[C@@H](CO)C(=O)N[C@@H](CO)C(=O)N[C@H](C(=O)N[C@@H](CCC(=O)O)C(=O)N[C@H](C(=O)NCC(=O)N[C@@H](CO)C(=O)N[C@H](C(=O)N[C@H](C(=O)N1C[C@H](O)C[C@H]1C(N)=O)[C@@H](C)O)[C@@H](C)O)C(C)C)[C@@H](C)O)N(C)C(=O)[C@H](C)NC(=O)CN(C)C(=O)[C@H](Cc1ccccc1)NC(=O)[C@H](CO)NC(=O)[C@H](CO)NC(=O)[C@H](CCCNC(=N)N)NC(=O)[C@H](CCC(N)=O)NC(=O)[C@H](CC(C)C)NC(=O)[C@H](Cc1ccccc1)NC(=O)[C@H](Cc1c[nH]cn1)NC(=O)[C@H](C)NC(=O)[C@H](CC(C)C)NC(=O)[C@H](CCCNC(=N)N)NC(=O)[C@H](CCC(=O)O)NC(=O)[C@@H](NC(=O)[C@H](C)NC(=O)[C@@H]1CSSC[C@H](NC(=O)[C@H](CCCNC(=N)N)NC(=O)CC[C@H](NC(=O)CCCCCCCCCCCCCCCCCCC(=O)O)C(=O)O)C(=O)N2CCC[C@H]2C(=O)N[C@@H]([C@@H](C)O)C(=O)N[C@@H](C)C(=O)N[C@@H]([C@@H](C)O)C(=O)N1)[C@@H](C)O

Molecular target: T1, human amylin receptor 3 (hAMYR3), hCTR2 …
Assay: cell-based or functional assay

Binder	hAMYR3 EC50 (nM); cAMP induction [nM]
B1	0.27
B2	0.24
B3	0.18
B4	0.36
B5	0.34
B6	0.39
